Laboratory results published in US20230151089A1 (SYNGLE THERAPEUTICS B V, published 2023).

How the values were obtained:
[1] = target: T1, alpha-synuclein oligomers (UniProt P37840 1-140); assay: ELISA, alpha-Syn oligomer coated plate
[2] = target: T1, alpha-synuclein oligomers; assay: ELISA, read from the graph, reference alpha-Syn monomer
[3] = target: T1, alpha-synuclein oligomers; assay: ELISA on alpha-Syn oligomer coat; half of the highest OD 450 nm, drawn table
[4] = target: T1, alpha-synuclein oligomers; assay: ELISA on alpha-Syn oligomer coat; row 'Titre (nM)' of the drawn table, concentration at DO (50%)
[5] = target: T1, alpha-synuclein oligomers; assay: ELISA, alpha-Syn oligomer coated plate, exp 1
Description: (§1) Binding affinities (EC50 values) towards different antigens were determined from ELISA experiments using antigen coated plates as follows. Absorbance data was corrected for background absorption obtained by incubating antigen coated plates without adding primary antibody but keeping all other parameters constant. The background corrected absorbance values were then plotted against the log value of the antibody concentration.
(§2) The curve was fitted using the Graphpad Prism software using the common binding function Abs450=Max/(1+10\hat{ }(([Log EC50−Log Ab]))) where “Abs450” is the background corrected experimental absorption, “Max” is the absorption upon complete binding saturation, “Log EC50” is the log of the EC50 value and “Log Ab” is the log of the antibody concentration.

[6] = target: T1, alpha-synuclein oligomers; assay: ELISA, alpha-Syn oligomer coated plate, exp 2
Description: as §1, §2

[7] = target: T1, alpha-synuclein oligomers; assay: ELISA, alpha-Syn oligomer coated plate, exp 3
Description: as §1, §2

[8] = target: T1, alpha-synuclein oligomers; assay: ELISA, ratio of EC50 values, reference alpha-Syn fibrils
Description: as §1, §2

[9] = target: T1, alpha-synuclein oligomers; assay: ELISA, ratio of binding affinities, reference alpha-Syn fibrils (FIG. 3)
Description: as §1, §2

[10] = target: T1, alpha-synuclein oligomers; assay: ELISA on antigen-coated plate, antibody titrated in tenfold steps, OD 450-630 nm
Description: as §1, §2

[11] = target: T1, alpha-synuclein oligomers; assay: ELISA on plates coated with ASO, ABO, AB fibrils, TAU oligo, TAU fibrils or no coat; antibody titrated, OD 450 nm

| EC50 [1] | specificity ratio of alpha-Syn oligomer compared to alpha-Syn monomer [2] | DO (50%) [3] | EC50 [4] | EC50 [5] | EC50 [6] | EC50 [7] | fold preference over alpha-Syn fibrils [8] | binding affinity ratio alpha-Syn oligomers:alpha-Syn fibrils [9] | EC50 (read off the curve) [10] | EC50 (read off the curve) [11] | Binder |
| --- | --- | --- | --- | --- | --- | --- | --- | --- | --- | --- | --- |
| ~3.7 nM | ≥ 100 | 0.744 | 3.66 nM |  |  |  |  |  |  |  | 26F1 scFv (single-chain variable fragment) (scFv) scFv: DVQLQESGPGLVKPSQSLSLTCTVTGYSITSDYAWNWIRQFPGNKLEWLGYISYSGNTYYNPSLKSRISITRDTSKNQFFLHLNSVTTEDTATYYCAGNYVRWGQGTLVTVSAGGGGSGGGGSGGGGSDVVMTQTPLTLSVTIGQPASISCKSSQSLLYTNGKTYLNWLLQRPGQSPKRLIYLVSKLDSGVPDRFSGSGSGTDFTLKISRVEAEDLGVYYCLQSSHFPHTFGSGTKLEIK |
|  |  | 1.31 | 0.0966 nM | 0.039 nM | 0.027 nM | 0.09 nM | 20 fold | ≥ 20 fold | ~0.2 nM | ~0.01 µg/mL | antibody 26F1 (antibody, mouse IgG2a, kappa, V domains shown, Mouse monoclonal; Isotype is said to be preferably IgG2a kappa; also called 26F1 antibody; IgG 26F1) VH: DVQLQESGPGLVKPSQSLSLTCTVTGYSITSDYAWNWIRQFPGNKLEWLGYISYSGNTYYNPSLKSRISITRDTSKNQFFLHLNSVTTEDTATYYCAGNYVRWGQGTLVTVSA VL: not shown |
| ~2 nM | ≥ 100 | 0.904 | 2.03 nM |  |  |  |  |  |  |  | 26F1 TaFv (tandem single-chain variable fragment) (scFv) scFv: DVQLQESGPGLVKPSQSLSLTCTVTGYSITSDYAWNWIRQFPGNKLEWLGYISYSGNTYYNPSLKSRISITRDTSKNQFFLHLNSVTTEDTATYYCAGNYVRWGQGTLVTVSAGGGGSGGGGSGGGGSDVVMTQTPLTLSVTIGQPASISCKSSQSLLYTNGKTYLNWLLQRPGQSPKRLIYLVSKLDSGVPDRFSGSGSGTDFTLKISRVEAEDLGVYYCLQSSHFPHTFGSGTKLEIKGGGGSDVQLQESGPGLVKPSQSLSLTCTVTGYSITSDYAWNWIRQFPGNKLEWLGYISYSGNTYYNPSLKSRISITRDTSKNQFFLHLNSVTTEDTATYYCAGNYVRWGQGTLVTVSAGGGGSGGGGSGGGGSDVVMTQTPLTLSVTIGQPASISCKSSQSLLYTNGKTYLNWLLQRPGQSPKRLIYLVSKLDSGVPDRFSGSGSGTDFTLKISRVEAEDLGVYYCLQSSHFPHTFGSGTKLEIK |
